Data: US20230039279

Key:
[1] = tested on: MMP-9 peptide substrate M2, GRCR-GPRSLSG-RCRG
[2] = tested on: MMP-9 sensitive peptide (GPRSLSG-RRCG) linked ibuprofen
[3] = tested on: cleavable peptide (1) GCRR-KGPRSLSGK-RRCG
[4] = tested on: ibu-GPQGIWGQ-DRCG
[5] = tested on: non-cleavable scrambled peptide GCRR-KSSRGGPLK-RRCG
[6] = tested on: peptide (2)
[7] = tested on: peptide (3), crosslinker based on substrate AVRWLLTA
[8] = tested on: peptide (4)
[9] = tested on: peptide (5)
[10] = tested on: peptide (6)
[11] = tested on: peptide (7)

Chain of matrix-metalloprotease-9 (MMP-9), 83 kDa, Merck (chain, as listed by the source): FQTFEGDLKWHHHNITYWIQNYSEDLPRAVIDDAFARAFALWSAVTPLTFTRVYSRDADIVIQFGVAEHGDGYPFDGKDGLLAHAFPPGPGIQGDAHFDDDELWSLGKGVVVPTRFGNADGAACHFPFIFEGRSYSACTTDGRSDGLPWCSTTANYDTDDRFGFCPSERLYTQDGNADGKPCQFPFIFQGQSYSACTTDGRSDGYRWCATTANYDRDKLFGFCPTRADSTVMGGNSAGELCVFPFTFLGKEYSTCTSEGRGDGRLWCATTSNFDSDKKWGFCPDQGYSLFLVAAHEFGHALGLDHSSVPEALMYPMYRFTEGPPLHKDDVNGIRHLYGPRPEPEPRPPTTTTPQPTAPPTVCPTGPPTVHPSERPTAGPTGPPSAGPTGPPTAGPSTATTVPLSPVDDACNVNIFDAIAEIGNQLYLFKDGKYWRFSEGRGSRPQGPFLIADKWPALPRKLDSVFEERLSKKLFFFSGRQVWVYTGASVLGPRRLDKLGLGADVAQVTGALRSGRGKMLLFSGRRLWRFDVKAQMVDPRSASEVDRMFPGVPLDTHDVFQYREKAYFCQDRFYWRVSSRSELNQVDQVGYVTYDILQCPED

Substance	degradation of H2-M2 combinational hydrogel and release of PLGA particles over 24 hours [1]	specificity of protease-triggered ibuprofen liberation (FIG. 10B) [2]	ultimate cumulative drug release at 48 hours from the dual-responsive conjugate hydrogel, MMP-9 alone (2 µg/ml) [2]	cleavability of hybrid hydrogel (release of PLGA particles into the medium after 20 h with 3 µg/ml MMP-9) [3]	cumulative drug release from GEL-iP after 4 hours with 3 µg/ml MMP-9 [3]	LC-MS detection of the liberated fragment in the supernatant after 2 days of hydrogel exposure to MMP9 solution [4]	cumulative drug release from scrGEL-iP after 4 hours with 3 µg/ml MMP-9 [5]	cleavability of hybrid hydrogel (release of PLGA particles into the medium after 20 h with 3 µg/ml MMP-9) [6]	cleavability of hybrid hydrogel (release of PLGA particles into the medium after 20 h with 3 µg/ml MMP-9) [7]	cleavability of hybrid hydrogel (release of PLGA particles into the medium after 20 h with 3 µg/ml MMP-9) [8]	cleavability of hybrid hydrogel (release of PLGA particles into the medium after 20 h with 3 µg/ml MMP-9) [9]	cleavability of hybrid hydrogel (release of PLGA particles into the medium after 20 h with 3 µg/ml MMP-9) [10]	cleavability of hybrid hydrogel (release of PLGA particles into the medium after 20 h with 3 µg/ml MMP-9) [11]
matrix-metalloprotease-9 (MMP-9), 83 kDa, Merck	H2 and M2 peptide substrates were preferentially cleaved by HNE and MMP-9 proteases respectively	the peptide sequence, GPRSLSGRRCG (SEQ ID NO: 20), as a spacer illustrated a good specificity toward MMP-9 compared to cathepsin B and human neutrophil elastase (HNE)	the ultimate cumulative release achieved 71%	hybrid hydrogels crosslinked with peptides (1), (4), (5) and (7) could be digested by MMP-9	exposing GEL-iP to MMP-9 for 4 hours significantly boosted the cumulative drug release to 100% compared to only 25% in the absence of MMP-9	LC-MS analysis confirmed the presence of the liberated ibuprofen bearing fragment (ibu-GPQG, LC peak at elution time of 14.6 min, MS peak at m/z=546.20)	only 40% was released from the hybrid hydrogel crosslinked by the scrambled peptide (scrGEL-iP) at the same condition	hydrogels formed with peptides (2), (3), and (6) were not cleaved upon exposure to MMP-9	hydrogels formed with peptides (2), (3), and (6) were not cleaved upon exposure to MMP-9	hybrid hydrogels crosslinked with peptides (1), (4), (5) and (7) could be digested by MMP-9	hybrid hydrogels crosslinked with peptides (1), (4), (5) and (7) could be digested by MMP-9	hydrogels formed with peptides (2), (3), and (6) were not cleaved upon exposure to MMP-9	hybrid hydrogels crosslinked with peptides (1), (4), (5) and (7) could be digested by MMP-9
cathepsin B		the peptide sequence, GPRSLSGRRCG (SEQ ID NO: 20), as a spacer illustrated a good specificity toward MMP-9 compared to cathepsin B and human neutrophil elastase (HNE)											
